Experimental data as given in the supplement of paper PMC10567573.
± gives the standard deviation.

Experiment: protein stability index of a GFP-peptide fusion (GPS, HEK-293T) (PSI 1-6); higher = more stable
[1] = treatment: DMSO, c terminus: a fixed tail appended
[2] = treatment: MLN4924 1 uM, 8 h, c terminus: a fixed tail appended
[3] = treatment: DMSO, c terminus: native
[4] = treatment: MLN4924 1 uM, 8 h, c terminus: native
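Note: 24-mer peptide tiles fused after GFP, lentivirally expressed, FACS-sorted into six equal bins by GFP/DsRed ratio, decoded by Illumina sequencing, PSI is the read-weighted mean bin number.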

Sequence | protein stability index [1] | protein stability index [2] | protein stability index [3] | protein stability index [4]
QTLDVNRDGGLCVNDLAVGLRRLG [SLC25A25] | 2.98 ± 0.23 | 3.18 ± 0.3 | – | –
QVKASSPVPATPILQLEECCTHNN [TRIM9] | 4.9 ± 0.21 | 4.923 ± 0.028 | – | –
QVTCLRTQVLEDSEDSFCRRHPGL [TRAF3IP2] | 4.05 ± 0.2 | 4.08 ± 0.35 | – | –
QYIAQFTSQFLSLQCLQALYVDSL [PRAME] | 3.237 ± 0.011 | 3.47 ± 0.23 | – | –
RAHAEIRKMSLLKFLAKVNGSDPR [MAGEA10] | 2.37 ± 0.26 | 2.57 ± 0.58 | – | –
RAQLPKYQRNLPRPGQAPIGNPPV [ZNF207] | 3.75 ± 0.26 | 3.79 ± 0.14 | – | –
RATRAGAAEEPGVRGLLASLFAFK [C2CD2L] | 3.1 ± 0.75 | 3.01 ± 0.57 | – | –
RCCGAASYQDWQQNLYFNCSSPGV [TSPAN10] | 2.37 ± 0.42 | 2.33 ± 0.66 | – | –
RDDLEALGHMFMYFLRGSLPWQGL [CSNK1G3] | 3.19 ± 0.37 | 2.93 ± 0.15 | – | –
REPAGRWKEGRPRVEESGSKKEGK [PBXIP1] | 5.34 ± 0.21 | 5.36 ± 0.21 | – | –
RFVQDLVRALEQEKLQGVECGLR [DAPK3] | – | – | 2.92 ± 1.3 | 2.14 ± 0.067
RKAALEQDLAFWYGPRWQEVIPYT [HMOX1] | 2.33 ± 0.23 | 2.54 ± 0.39 | – | –
RKPCKLMLQVVKILVVTVQLILFG [MCOLN1] | 2.44 ± 0.33 | 2.47 ± 0.32 | – | –
RLKFPIDYPYSPPAFRFLTKMWHP [CDC34] | 2.49 ± 0.48 | 2.09 ± 0.15 | – | –
RLQHICELFIITQLQSMPSRELAS [RHOBTB3] | 3.19 ± 0.5 | 3.33 ± 0.63 | – | –
RLYVDKSLNLSTEFISSTKRPYAK [SERPINB5] | 3.41 ± 0.76 | 3.46 ± 0.5 | – | –
RMPLLTPRYITDVIDAEPFIRCSL [KLHL12] | 2.27 ± 0.28 | 1.84 ± 0.52 | – | –
RMTSAAHYYPKLMSIMGNVLRFLP [GFOD1] | 2.32 ± 0.39 | 2.15 ± 0.36 | – | –
RNRLAATKCRKRKLERIARLEDKV [JUNB] | 3.78 ± 0.17 | 3.86 ± 0.12 | – | –
RNVLELNDVRQSANYTCVAMSTLG [PTPRD] | 2.85 ± 0.28 | 2.74 ± 0.17 | – | –
RNWALKESFIKAIGVGLGFELQRL [AASDHPPT] | 3 ± 0.54 | 2.63 ± 0.52 | – | –
RPVILDPADPTGNLGGGDPKGWRQ [OAS1] | 4.28 ± 0.18 | 4.47 ± 0.18 | – | –

Sequence | protein stability index [1] | protein stability index [2] | protein stability index [3] | protein stability index [4]
RPWADTCSSSGKDGNLCLHVPNPP [HESX1] | 3.48 ± 0.14 | 3.81 ± 0.19 | – | –
RQVWLLFEYPESSGPARVIAIVSV [KCNA1] | 3.25 ± 0.45 | 2.64 ± 0.48 | – | –
RRGRMALCGQAAGAASLPSELIVH [FBXO33] | 2.96 ± 0.25 | 2.78 ± 0.32 | – | –
RRLEAFEHPNVVRLMDVCATSRTD [CDK4] | 3.9 ± 0.13 | 3.91 ± 0.27 | – | –
RRVGILGEELADVGGVLRGLNHSL [SCARA5] | 2.9 ± 0.095 | 2.94 ± 0.3 | – | –
RSHHLEMVIQLLAIMCVSCICWSP [PTGFR] | 3.18 ± 0.26 | 3.14 ± 0.69 | – | –
RSLEELTRLAFELFAEEQAEGPNR [LPCAT4] | 3.32 ± 0.52 | 3.53 ± 0.18 | – | –
RSLSERTVDKCFGRKKYDIDPRNG [SPATS1] | 4.39 ± 0.24 | 4.73 ± 0.33 | – | –
RSREARSRLLLLEQELKTVTYSLL [SMAD6] | 2.61 ± 0.36 | 2.5 ± 0.33 | – | –
RTDEELQPPTTTVARSGTPAVENK [PLK2] | 5.42 ± 0.6 | 5.45 ± 0.27 | – | –
RTFLETSTDTAVTNEWEKRLSTSP [EPB41L3] | 4.17 ± 0.33 | 3.98 ± 0.2 | – | –
RTKSRTWAGEKSKREMYSRLKKL [CDC25A] | – | – | 4.36 ± 0.32 | 4.51 ± 0.38
RTYGEPESAGPSRAVRQSVTSFPD [EMD] | 4.92 ± 0.24 | 4.94 ± 0.14 | – | –
RVLNSAKEKSSTVPIPTVNQYLYF [SOAT1] | 2.29 ± 0.14 | 2.47 ± 0.16 | – | –
RVMMASASDYFKAMFTGGMKEQDL [KLHL13] | 2.91 ± 0.58 | 2.82 ± 0.091 | – | –
RVRPLARVTSLANLISPVRNGAVR [NET1] | 3.12 ± 0.17 | 3.2 ± 0.41 | – | –
RYEQGRFWPHLKASNWSTTGFGQG [HDAC6] | 2.54 ± 0.28 | 2.6 ± 0.12 | – | –
RYESLTDPSKLDSGKELKIDIIPN [HSP90AB1] | 4.33 ± 0.2 | 4.31 ± 0.24 | – | –
SAPDTMKRYSMYLTPKGGVRTSYQ [TRIM29] | 2.94 ± 0.21 | 3.05 ± 0.16 | – | –
SAPEQELLVQDATPVSNSLLPEKA [GFOD1] | 5.29 ± 0.28 | 5.4 ± 0.26 | – | –
SAPPTSRTSSGNVWVTHEEMETLE [PPFIA4] | 5.12 ± 0.29 | 4.88 ± 0.39 | – | –
SAQLQELVCHVMMGNLVMFRKDSV [INTS3] | 3.07 ± 0.38 | 2.83 ± 0.37 | – | –

Sequence | protein stability index [1] | protein stability index [2] | protein stability index [3] | protein stability index [4]
SARYLSQCQEAEQARAELTAQHQR [FBF1] | 4.76 ± 0.28 | 4.57 ± 0.15 | – | –
SCFLINTADRIIRVYDGREILTCG [RBBP5] | 1.91 ± 0.098 | 1.91 ± 0.27 | – | –
SCPEGDASECPQATNAKDSGCSSP [PPEF2] | 5.63 ± 0.34 | 5.7 ± 0.27 | – | –
SCSQSHCCSRYLCMGAMSLFLPCL [SPRY1] | 2.52 ± 0.44 | 2.5 ± 0.4 | – | –
SDASSHANAAKHTQDSARVNPQDG [EHMT1] | 5.27 ± 0.22 | 5.36 ± 0.21 | – | –
SEADASHCIQQILEAVLHCHQMGV [CAMK2B] | 2.48 ± 0.14 | 2.67 ± 0.59 | – | –
SEAEEALYLIAKRNRKLKCTFSLT [SLC22A15] | 2.52 ± 0.15 | 2.56 ± 0.12 | – | –
SEASIASNLQAMSTQMFQTKRCFR [SMG5] | 3.94 ± 0.13 | 4.08 ± 0.15 | – | –
SEIGTSDQIVPEYQEDSDISSFFC [TRIB1] | 4.39 ± 0.47 | 4.55 ± 0.36 | – | –
SEMWDIFLVRLLMAMAVMLYYSNF [MFSD9] | 3.25 ± 0.38 | 3.36 ± 0.33 | – | –
SEPYKLLPGAVATIVKPLSAIPQP [HNF4A] | 3.44 ± 0.3 | 3.59 ± 0.16 | – | –
SERDKRPEGYNLKDEEGRLRDPAT [PPP2R2B] | 5.6 ± 0.29 | 5.4 ± 0.18 | – | –
SERPLDFLDLERPPTTPQNEEIRA [MFF] | 5.29 ± 0.39 | 5.55 ± 0.15 | – | –
SFLNVTKSSLIWSYPAGSLTFPVR [TRIM43] | 1.89 ± 0.045 | 2.17 ± 0.16 | – | –
SGLQGLPECTRCGHGIVGTIVKAR [PDLIM4] | 2.51 ± 0.32 | 2.64 ± 0.34 | – | –
SGRHPSHSTTPSGPGDEVARGIAG [ARFIP2] | 4.81 ± 0.13 | 4.62 ± 0.22 | – | –
SGSLITAGRIDREELCAQSARCVV [PCDHGA10] | 3.22 ± 0.4 | 3.2 ± 0.29 | – | –
SGTVAAVLTLPFDVVKTQRQVALG [SLC25A39] | 2.15 ± 0.32 | 2.27 ± 0.3 | – | –
SHAWEVALGGLQSWRVGVVRVRQD [TRIM35] | 2.47 ± 0.26 | 2.35 ± 0.36 | – | –
SHYFKIIEDLRAQIFANTVDNARI [KRT18] | 2.4 ± 0.44 | 2.07 ± 0.24 | – | –
SIDLGTAHSAAVTASGDCYTFGSN [NEK8] | 3.79 ± 0.31 | 4.06 ± 0.35 | – | –
SKESSKEKKLTVRQDLEDRYAEHV [C22orf31] | 5.09 ± 0.27 | 5.16 ± 0.1 | – | –

Sequence | protein stability index [1] | protein stability index [2] | protein stability index [3] | protein stability index [4]
SLDGKAIKVEQATKPSFESGRRGP [RBMX] | 4.84 ± 0.4 | 4.94 ± 0.35 | – | –
SLEKLLASEPLPWDLRFRIIHETA [RIPK4] | 2.18 ± 0.33 | 2.31 ± 0.33 | – | –
SLIGKGSFGQVVKAYDHQTQELVA [DYRK1B] | 3.56 ± 0.26 | 3.59 ± 0.43 | – | –
SLMYRSPPGAEEPQAPPASRDEAA [RETREG3] | 5.44 ± 0.22 | 5.38 ± 0.26 | – | –
SNSRQLKWLSCGFMLEIVTPTSLS [FBXO33] | 3.39 ± 0.73 | 2.83 ± 0.67 | – | –
SPALSQGHVTGSKTTKDATGPDT [PSD2] | – | – | 5.33 ± 0.28 | 5.43 ± 0.23
SPASHVDVDLTIHGRHIDCPATWG [FOXJ1] | 3.14 ± 0.2 | 3.28 ± 0.19 | – | –
SPMLIVFHGKYSTINPLWHIRHLG [GLT8D2] | 2.82 ± 0.44 | 2.47 ± 0.71 | – | –
SPMPYVKWMLGAEDLTPEDDMPIG [PTPRD] | 4.3 ± 0.26 | 4.17 ± 0.48 | – | –
SPPTRPVPGHRSERAIRTQPKQLI [SPRY1] | 4.04 ± 0.37 | 4.05 ± 0.18 | – | –
SPSKTDGKELAGTMDGEGTLFQTE [PBXIP1] | 5.31 ± 0.24 | 5.44 ± 0.3 | – | –
SPSPMSHGHYSMHCLHSAGHSQPD [DLX1] | 3.82 ± 0.18 | 3.91 ± 0.21 | – | –
SRDRRRSSDRSRDSSHERTESQLT [BTBD10] | 5.45 ± 0.32 | 5.5 ± 0.22 | – | –
SRLGQGIGPIHLNEIQCTGNEKSI [LOXL2] | 4.42 ± 0.32 | 4.09 ± 0.18 | – | –
SRSNGSSPEARDARSPSGPSGSLE [TRIM29] | 5.16 ± 0.17 | 5.29 ± 0.3 | – | –
SSDHLFLFGGFTTDKQPLSDAWTY [KLHDC2] | 2.25 ± 0.61 | 2.23 ± 0.063 | – | –
SSLSSESSESSDAGLCMDSPSPMD [CDC25B] | 5.462 ± 0.013 | 5.37 ± 0.23 | – | –
SSSASSSFSEEGAVGYSSDSETLD [NFE2L1] | 5.65 ± 0.13 | 5.655 ± 0.043 | – | –
STEVQAHPYSTTFQESASTPETRA [TEKT4] | 5.23 ± 0.17 | 5.16 ± 0.1 | – | –
STHHGCEHICVNNGNSYICKCSEG [MATN2] | 5.16 ± 0.27 | 4.94 ± 0.23 | – | –
STLGTLQPPPAPPKKIMPEAHSHY [PPFIA4] | 4.02 ± 0.18 | 4.24 ± 0.1 | – | –
STLKEVKPTVFIGVPQIWEKIHEM [ACSBG2] | 2.1 ± 0.24 | 2.27 ± 0.31 | – | –
